The record followed here is the supplement of paper PMC12338614.

Sequences and labels used below:
B1: library; numbered along this chain (parent)
chain: MEVVDPQQLGMFTEGELMSVGMDTFIHRIDSTEVIYQPRRKRAKLIGKYLMGDLLGEGSYGKVKEVLDSETLCRRAVKILKKKKLRRIPNGEANVKKEIQLLRRLRHKNVIQLVDVLYNEEKQKMYMVMEYCVCGMQEMLDSVPEKRFPVCQAHGYFCQLIDGLEYLHSQGIVHKDIKPGNLLLTTGGTLKISDLGVAEALHPFAADDTCRTSQGSPAFQPPEIANGLDTFSGFKVDIWSAGVTLYNITTGLYPFEGDNIYKLFENIGKGSYAIPGDCGPPLSDLLKGMLEYEPAKRFSIRQIRQHSWFRKKHPPAEAPVPIPPSPDTKDRWRSMTVVPYLEDLHGADEDEDLFDIEDDIIYTQDFTVPGQVPEEEASHNGQRRGLPKAVCMNGTEAAQLSTKSRAEGRAPNPARKACSASSKIRRLSACKQQ

± gives the uncertainty stated by the source.

This data set covers variants of B1. Nature of the data set: STK11 functional score (HeLa growth suppression), rescaled enrichment; synonymous median = 1, nonsense median = 0 (normalised score). Conditions: with HeLa; variant type: missense. The gist of the method: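 The functional score takes the post/pre-selection log ratio, corrects it to wild type, rescales it to synonymous and nonsense medians, and merges it over codons and replicate transfections, with error from bootstrapping. Counts came from tiled gDNA amplicons sequenced on NextSeq (~2 million reads per tile). The libraries were POPCode codon-randomised, codon-optimised STK11 integrated by Bxb1 at an AAVS1 landing pad in HeLa, three regions with three transfections each.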
As to MEVVDPQQLGMFTEGELMSVGMDTFIHRIDSTEVIYQPRRKRAKLIGKYLMGDLLGEGSYGKVKEVLDSETLCRRAVKILKKKKLRRIPNGEANVKKEIQLLRRLRHKNVIQLVDVLYNEEKQKMYMVMEYCVCGMQEMLDSVPEKRFPVCQAHGYFCQLIDGLEYLHSQGIVHKDIKPGNLLLTTGGTLKISDLGVAEALHPVAADDTCRTSQGSPAFQPPEIANGLDTFSGFKVDIWSAGVTLYNITTGLYPFEGDNIYKLFENIGKGSYAIPGDCGPPLSDLLKGMLEYEPAKRFSIRQIRQHSWFRKKHPPAEAPVPIPPSPDTKDRWRSMTVVPYLEDLHGADEDEDLFDIEDDIIYTQDFTVPGQVPEEEASHNGQRRGLPKAVCMNGTEAAQLSTKSRAEGRAPNPARKACSASSKIRRLSACKQQ [F204V], the STK11 functional score was found to be 1.24 ± 0.23.

With MEVVDPQQLGMFTEGELMSVGMDTFIHRIDSTEVIYQPRRKRAKLIGKYLMGDLLGEGSYGKVKEVLDSETLCRRAVKILKKKKLRRIPNGEANVKKEIQLLRRLRHKNVIQLVDVLYNEEKQKMYMVMEYCVCGMQEMLDSVPEKRFPVCQAHGYFCQLIDGLEYLHSQGIVHKDIKPGNLLLTTGGTLKISDLGVAEALHPIAADDTCRTSQGSPAFQPPEIANGLDTFSGFKVDIWSAGVTLYNITTGLYPFEGDNIYKLFENIGKGSYAIPGDCGPPLSDLLKGMLEYEPAKRFSIRQIRQHSWFRKKHPPAEAPVPIPPSPDTKDRWRSMTVVPYLEDLHGADEDEDLFDIEDDIIYTQDFTVPGQVPEEEASHNGQRRGLPKAVCMNGTEAAQLSTKSRAEGRAPNPARKACSASSKIRRLSACKQQ [F204I], the STK11 functional score was 1.23 ± 0.25.

Consider MEVVDPQQLGMFTEGELMSVGMDTFIHRIDSTEVIYQPRRKRAKLIGKYLMGDLLGEGSYGKVKEVLDSETLCRRAVKILKKKKLRRIPNGEANVKKEIQLLRRLRHKNVIQLVDVLYNEEKQKMYMVMEYCVCGMQEMLDSVPEKRFPVCQAHGYFCQLIDGLEYLHSQGIVHKDIKPGNLLLTTGGTLKISDLGVAEALHPRAADDTCRTSQGSPAFQPPEIANGLDTFSGFKVDIWSAGVTLYNITTGLYPFEGDNIYKLFENIGKGSYAIPGDCGPPLSDLLKGMLEYEPAKRFSIRQIRQHSWFRKKHPPAEAPVPIPPSPDTKDRWRSMTVVPYLEDLHGADEDEDLFDIEDDIIYTQDFTVPGQVPEEEASHNGQRRGLPKAVCMNGTEAAQLSTKSRAEGRAPNPARKACSASSKIRRLSACKQQ [F204R], for which the STK11 functional score was determined as 0.931 ± 0.16.

In the case of MEVVDPQQLGMFTEGELMSVGMDTFIHRIDSTEVIYQPRRKRAKLIGKYLMGDLLGEGSYGKVKEVLDSETLCRRAVKILKKKKLRRIPNGEANVKKEIQLLRRLRHKNVIQLVDVLYNEEKQKMYMVMEYCVCGMQEMLDSVPEKRFPVCQAHGYFCQLIDGLEYLHSQGIVHKDIKPGNLLLTTGGTLKISDLGVAEALHPGAADDTCRTSQGSPAFQPPEIANGLDTFSGFKVDIWSAGVTLYNITTGLYPFEGDNIYKLFENIGKGSYAIPGDCGPPLSDLLKGMLEYEPAKRFSIRQIRQHSWFRKKHPPAEAPVPIPPSPDTKDRWRSMTVVPYLEDLHGADEDEDLFDIEDDIIYTQDFTVPGQVPEEEASHNGQRRGLPKAVCMNGTEAAQLSTKSRAEGRAPNPARKACSASSKIRRLSACKQQ [F204G], the STK11 functional score was 1.3 ± 0.17.

On to MEVVDPQQLGMFTEGELMSVGMDTFIHRIDSTEVIYQPRRKRAKLIGKYLMGDLLGEGSYGKVKEVLDSETLCRRAVKILKKKKLRRIPNGEANVKKEIQLLRRLRHKNVIQLVDVLYNEEKQKMYMVMEYCVCGMQEMLDSVPEKRFPVCQAHGYFCQLIDGLEYLHSQGIVHKDIKPGNLLLTTGGTLKISDLGVAEALHPHAADDTCRTSQGSPAFQPPEIANGLDTFSGFKVDIWSAGVTLYNITTGLYPFEGDNIYKLFENIGKGSYAIPGDCGPPLSDLLKGMLEYEPAKRFSIRQIRQHSWFRKKHPPAEAPVPIPPSPDTKDRWRSMTVVPYLEDLHGADEDEDLFDIEDDIIYTQDFTVPGQVPEEEASHNGQRRGLPKAVCMNGTEAAQLSTKSRAEGRAPNPARKACSASSKIRRLSACKQQ [F204H], for which the STK11 functional score was found to be 1.67 ± 0.41.

As for MEVVDPQQLGMFTEGELMSVGMDTFIHRIDSTEVIYQPRRKRAKLIGKYLMGDLLGEGSYGKVKEVLDSETLCRRAVKILKKKKLRRIPNGEANVKKEIQLLRRLRHKNVIQLVDVLYNEEKQKMYMVMEYCVCGMQEMLDSVPEKRFPVCQAHGYFCQLIDGLEYLHSQGIVHKDIKPGNLLLTTGGTLKISDLGVAEALHPLAADDTCRTSQGSPAFQPPEIANGLDTFSGFKVDIWSAGVTLYNITTGLYPFEGDNIYKLFENIGKGSYAIPGDCGPPLSDLLKGMLEYEPAKRFSIRQIRQHSWFRKKHPPAEAPVPIPPSPDTKDRWRSMTVVPYLEDLHGADEDEDLFDIEDDIIYTQDFTVPGQVPEEEASHNGQRRGLPKAVCMNGTEAAQLSTKSRAEGRAPNPARKACSASSKIRRLSACKQQ [F204L], the STK11 functional score was 1.17 ± 0.4.

Consider MEVVDPQQLGMFTEGELMSVGMDTFIHRIDSTEVIYQPRRKRAKLIGKYLMGDLLGEGSYGKVKEVLDSETLCRRAVKILKKKKLRRIPNGEANVKKEIQLLRRLRHKNVIQLVDVLYNEEKQKMYMVMEYCVCGMQEMLDSVPEKRFPVCQAHGYFCQLIDGLEYLHSQGIVHKDIKPGNLLLTTGGTLKISDLGVAEALHPWAADDTCRTSQGSPAFQPPEIANGLDTFSGFKVDIWSAGVTLYNITTGLYPFEGDNIYKLFENIGKGSYAIPGDCGPPLSDLLKGMLEYEPAKRFSIRQIRQHSWFRKKHPPAEAPVPIPPSPDTKDRWRSMTVVPYLEDLHGADEDEDLFDIEDDIIYTQDFTVPGQVPEEEASHNGQRRGLPKAVCMNGTEAAQLSTKSRAEGRAPNPARKACSASSKIRRLSACKQQ [F204W], for which the STK11 functional score amounted to 1.3 ± 0.13.
